Measured values published in patent publication US20180037632A1 (BIONTECH, published 2018).
Where a chain is given by its changes, count along the chain named. In names and notes the source's numbering stands. Positions of bridges follow the written chain, without caps; N, C: chain ends. No end group written: not given here.

How the values were obtained:
[1] = biological target: T1, recombinant soluble human Seprase (rhuSeprase) (human, UniProt Q12884 29-760); test: SPR (Biacore T100), rhuSeprase immobilised, MC-FA-010 at 37, 111,11, 333,33, 1000 and 3000 nM, global fit; Rmax 316,6 RU; Chi² 9,42 RU²; U-value 1
T1 construct: range 29-760; Secreted from CHO-S cells with a mouse Ig kappa secretion signal (not part of the protein in the assay); also called recombinant human Seprase; soluble fraction of human Seprase
T1 sequence: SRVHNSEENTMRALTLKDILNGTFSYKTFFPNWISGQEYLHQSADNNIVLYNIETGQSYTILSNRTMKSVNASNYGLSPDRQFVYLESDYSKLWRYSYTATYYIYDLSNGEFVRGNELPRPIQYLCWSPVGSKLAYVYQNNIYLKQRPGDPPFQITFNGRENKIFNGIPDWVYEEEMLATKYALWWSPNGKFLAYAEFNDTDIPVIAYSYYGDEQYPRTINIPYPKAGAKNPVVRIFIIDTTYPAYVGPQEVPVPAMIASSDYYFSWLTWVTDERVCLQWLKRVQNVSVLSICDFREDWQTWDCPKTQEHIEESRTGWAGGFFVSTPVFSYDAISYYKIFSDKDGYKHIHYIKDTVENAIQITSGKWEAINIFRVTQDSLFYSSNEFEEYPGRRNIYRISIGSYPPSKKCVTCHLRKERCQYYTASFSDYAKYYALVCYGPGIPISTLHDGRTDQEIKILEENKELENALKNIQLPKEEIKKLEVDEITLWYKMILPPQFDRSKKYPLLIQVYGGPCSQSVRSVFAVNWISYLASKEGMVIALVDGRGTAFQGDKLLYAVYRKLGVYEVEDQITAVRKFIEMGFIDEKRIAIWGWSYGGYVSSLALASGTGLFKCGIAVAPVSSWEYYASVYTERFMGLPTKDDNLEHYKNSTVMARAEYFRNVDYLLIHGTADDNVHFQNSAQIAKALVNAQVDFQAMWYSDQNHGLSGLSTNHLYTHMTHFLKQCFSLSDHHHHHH
Procedure: (§1) To obtain insights of the kinetic binding properties surface plasmon resonance (SPR) analysis was performed on a Biacore T100 device (GE Healthcare). Therefore, rhuSeprase was immobilized onto a CM5 chip via NHS/EDC mediated coupling as described by manufacturer at 10 μl/min for 420 sec. […] Kd values were calculated using the provided software.
(§2) As a next step a more detailed analysis of binding kinetic was performed using surface plasmon resonance technology (SPR). Therefore, recombinant human Seprase was immobilized on a CMS chip (GE Healthcare) with an amino reactive surface. […] Association and dissociation data was fitted and corresponding dissociation constant and kinetic values (Kon, Koff and Kd) was calculated using the provided software of the system (FIGS. 4A and B).

[2] = biological target: T1, recombinant soluble human Seprase …; test: competition ELISA on coated rhuSeprase: free MC-FA-010 (0.64 to 3167 nM) against 3 nM Trx-MC-FA-010, detected with anti-S-Tag-HRP, OD 450 nm
Procedure: (§3) For protein based ELISA analysis 5 μg of the respective recombinant protein (rhuSeprase; streptavidin: Sigma; DPP-IV: R&D Systems, BSA: Eurobio) were immobilized per well of a MaxiSorp™ plate (Nunc) by overnight incubation in coating buffer at 4° C. After washing thrice with 300 μl PBS-T/well on a Hydrospeed plate washer (Tecan) the wells were blocked with 1×Casein solution (Sigma, diluted in PBS) for 2 h at RT. Subsequently, the wells were washed as indicated above. 100 μl of the respective Trx-miniprotein fusion diluted in PBS-T was then added and incubated for 1 h at 4° C. […] For competition ELISAs a fixed concentration of 3 nM Trx-miniprotein fusion was mixed with varying concentration (0.64-3167 nM) of solitary miniprotein before incubation. Binding of the Trx-fusion was detected after a PBS-T washing procedure using HRP coupled anti S-tag antibody as described above. Apparent Kd was calculated using Sigmaplot 10 and an one site saturation binding model for fitting of the data.
Detection of bound miniprotein was achieved via anti S-Tag-HRP conjugated antibody (S-tag is provided by thioredoxin fusion expression system, FIG. 3A). EC₅₀ values were calculated using the one-site-saturation binding model in Sigma plot 10.

[3] = biological target: T1, recombinant soluble human Seprase …; test: SPR (Biacore T-100), rhuSeprase immobilized on CM5, steady state analysis, 1:1 fit
Procedure: (§4) RhuSeprase (20 μg/ml in PBS, 5% mannitol, 5% trehalose) was immobilized on an amino reactive Series S Sensor Chip CM5 (GE Healthcare). For binding analysis of monomeric Microbodies rhuSeprase was loaded to a maximum of 7500 RU, for oligomeric Microbodies to a maximum of 700 RU. Monomeric Microbodies were measured using a multi cycle kinetic method in a concentration range of 3.125 to 1000 nM based on expected dissociation constant. Association step was measured over a time period of 60-90 seconds, dissociation over 420 seconds. Trimeric Mircobodies were measured using a single cycle kinetics method in a concentration range of 0.3125 to 5 nM (association for 90 seconds, dissociation 420 seconds). Binding kinetics and steady state analysis were calculated using a 1:1 binding model (Biacore T-100 Evaluation Software, GE Healthcare).
(§5) The binding kinetics of monomeric and trimeric Seprase-binding Microbodies was determined using surface plasmon resonance spectroscopy on a Biacore T-100 system.

[4] = biological target: T1, recombinant soluble human Seprase …; test: SPR (Biacore T-100), rhuSeprase immobilized on CM5, multi cycle kinetics, 1:1 fit
Procedure: as §4, §5

[5] = biological target: T1, recombinant soluble human Seprase …; test: SPR (Biacore T100), recombinant human Seprase immobilized, 37-3000 nM MC-FA-010; Seprase on the chip; monovalent MC-FA-010, 37-3000 nM, Biacore T100
Procedure: as §1, §2

[6] = biological target: T2, human Seprase, full length, on cells (human, UniProt Q12884 1-760); test: FACS-based competition on CHO-K1-huSeprase cells, competitor Trx-MC-FA-012 detected with anti-H6-PE
T2 construct: whole, on cells; also called CHO-K1-Seprase; CHO-K1-huSeprase
T2 sequence (looked up): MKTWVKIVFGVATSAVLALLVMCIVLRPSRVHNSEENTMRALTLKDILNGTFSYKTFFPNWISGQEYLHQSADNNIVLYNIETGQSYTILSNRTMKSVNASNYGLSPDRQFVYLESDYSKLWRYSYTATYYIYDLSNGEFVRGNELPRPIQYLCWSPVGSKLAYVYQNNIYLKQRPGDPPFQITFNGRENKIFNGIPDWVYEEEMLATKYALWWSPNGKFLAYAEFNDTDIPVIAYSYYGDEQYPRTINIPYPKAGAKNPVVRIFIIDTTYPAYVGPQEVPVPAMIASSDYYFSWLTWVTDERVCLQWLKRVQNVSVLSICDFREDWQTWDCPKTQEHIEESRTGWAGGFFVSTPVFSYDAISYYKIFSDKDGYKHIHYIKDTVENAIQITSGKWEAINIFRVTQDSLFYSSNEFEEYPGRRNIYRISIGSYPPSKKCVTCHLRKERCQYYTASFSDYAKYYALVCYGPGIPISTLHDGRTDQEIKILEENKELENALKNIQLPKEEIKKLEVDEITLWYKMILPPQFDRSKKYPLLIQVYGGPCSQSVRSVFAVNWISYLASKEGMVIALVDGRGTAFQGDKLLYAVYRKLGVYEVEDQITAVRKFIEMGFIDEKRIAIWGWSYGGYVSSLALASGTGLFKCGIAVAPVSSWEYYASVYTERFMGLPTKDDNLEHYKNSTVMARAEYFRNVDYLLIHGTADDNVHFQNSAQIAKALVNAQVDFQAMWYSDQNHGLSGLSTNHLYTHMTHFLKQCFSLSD

[7] = biological target: T1, recombinant soluble human Seprase …; test: SPR (Biacore T-100), rhuSeprase immobilized on CM5, single cycle kinetics, 1:1 fit
Procedure: as §4, §5

[8] = biological target: T1, recombinant soluble human Seprase …; test: SPR (Biacore T-100)
Procedure: as §4, §5

[9] = biological target: T1, recombinant soluble human Seprase …; test: direct ELISA on coated rhuSeprase, Trx fusion detected with anti-S-tag-HRP; apparent KD from one site saturation fit; Error 64,43; R2 0,9863
Procedure: as §3

[10] = biological target: T1, recombinant soluble human Seprase …; test: direct ELISA on coated rhuSeprase; binding relative to the parental Trx-MC-FA-010
Procedure: as §3

[11] = biological target: T1, recombinant soluble human Seprase …; test: direct ELISA on coated rhuSeprase, Trx fusion detected with anti-S-tag-HRP; apparent KD from one site saturation fit; Error 7,6; R2 0,9962
Procedure: as §3

B1: MC-FA-010 (designed binder)
chain: GKCPYSNWTPGRGPDCRRDSDCPGRCICRGNGYCG
modifications: disulfide (positions not given here)
notes: also called soluble monovalent MC-FA-010; solitary MC-FA-010 miniprotein
Binder B1 has a Kd [1] of 562 nM, a koff [1] of 0.151 s⁻¹ and a kon [1] of 268000 M⁻¹ s⁻¹. The IC50 [2] was about 20 nM, the Kd [3] was 106 nM and the Kd [4] was 149 nM. For the same binder, the koff [4] was 0.201 s⁻¹, the kon [4] was 1.53e+06 M⁻¹ s⁻¹ and the Kd [5] was about 560 nM.

B2: DOTA-(MC-FA-012)3 (designed binder)
chain 1: B1 chain with K2A
chain 2: B1 chain with K2A
chain 3: B1 chain with K2A
modifications: each of chains 1-3: N-terminal aminooxy group oxime-ligated to an oxidised serine of the anchor; three disulfides (cystine knot) per chain; anchor carries an N-terminal DOTA chelator
notes: Purchased from Pepscan; about 13000 Da; also called DOTA conjugated trimerized MC-FA-012; MC-FA-012 trimer; not shown: the anchor scaffold (N-terminal DOTA, three Lys-Ser units separated by GSGS linkers)
In the case of B2, the IC50 [6] is reported as 43.3 nM, the Kd [7] is reported as 0.0124 nM and the kon [7] is reported as 2.11e+07 M⁻¹ s⁻¹. The Kd [3] was 0.249 nM and the “times slower offrate compared to MC-FA-012” value [8] was about 530 fold.

B3: Trx-MC-FA-0112 (designed binder)
chain: B1 chain with G13A
modifications: disulfide 16-28, 22-34, 3-26; also: N-terminal Trx-His6-S-tag fusion carrier, not in chain
notes: the position follows from the order of the rows; also called alanine scan variant G13A of MC-FA-010, Trx fusion; not shown: Thioredoxin-A, His-tag (H6), S-tag and linker of the pET-32-LibEx fusion, N-terminal of the miniprotein
In the case of B3, the Kd [9] is reported as 217 nM and the “Relative Bindung im Vergleich zu Trx-MC-FA-010 [%]” value [10] is reported as 6.98%.

B4: Trx-MC-FA-019 (designed binder)
chain: B1 chain with P10A
modifications: disulfide 16-28, 22-34, 3-26; also: N-terminal Trx-His6-S-tag fusion carrier, not in chain
notes: the position follows from the order of the rows; also called alanine scan variant P10A of MC-FA-010, Trx fusion; not shown: thioredoxin-A, His6 tag, S-tag and linkers of the pET-32-LibEx fusion (N-terminal carrier)
In the case of B4, the Kd [11] is reported as 78.7 nM and the “Relative Bindung im Vergleich zu Trx-MC-FA-010 [%]” value [10] is reported as 19.3%.
